We go through seven molecules from patent US20160272693A1 (ZEALAND PHARMA A S, published 2016).

*1 amine or outer side, *2 acyl side, *3 side chain or, on linkers, in order; H or OH if unused. Bridges are numbered along the chain shown (N, C = ends). [ ]: non-standard residue; d: D form. The star is where a group is joined. C20 diacid = O=C(O)CCCCCCCCCCCCCCCCCCC(=O)*; γGlu = O=C(O)[C@H](CCC(=O)[*:2])N[*:1]; Hyp = O=C(O)[C@@H]1C[C@@H](O)CN1; NMeI = CC[C@H](C)[C@H](NC)C(=O)O; Sar = CNCC(=O)O

This experiment addresses T1, human amylin receptor 3 (hAMYR3), hCTR2 co-expressed with human receptor activity modifying protein 3 (hRAMP3) (human, UniProt P30988 25-474; O60896 24-148).
T1 sequence (looked up) 1: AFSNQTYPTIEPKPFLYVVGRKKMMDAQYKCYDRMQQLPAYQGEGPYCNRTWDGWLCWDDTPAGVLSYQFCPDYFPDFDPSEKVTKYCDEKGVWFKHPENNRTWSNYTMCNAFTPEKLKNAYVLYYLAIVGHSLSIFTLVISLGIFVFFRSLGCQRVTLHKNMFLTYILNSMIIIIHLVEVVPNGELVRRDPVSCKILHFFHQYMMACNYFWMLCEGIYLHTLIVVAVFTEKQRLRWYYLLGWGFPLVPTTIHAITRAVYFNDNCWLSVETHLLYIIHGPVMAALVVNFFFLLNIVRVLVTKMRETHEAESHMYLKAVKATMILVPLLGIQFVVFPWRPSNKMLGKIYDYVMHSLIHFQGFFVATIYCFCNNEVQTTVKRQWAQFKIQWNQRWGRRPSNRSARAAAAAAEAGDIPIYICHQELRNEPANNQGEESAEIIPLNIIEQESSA
T1 sequence (looked up) 2: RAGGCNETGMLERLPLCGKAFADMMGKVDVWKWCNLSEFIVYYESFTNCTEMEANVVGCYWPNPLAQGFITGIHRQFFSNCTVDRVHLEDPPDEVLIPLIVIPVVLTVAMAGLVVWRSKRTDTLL
The experiment in a line: cell-based or functional assay.

B1: [19CD]-isoGlu-R-C( )-GTAT-C( )-ATERLAHFLERSSF-Gly(Me)-A-Ile(Me)-LSSTEVGSSTP-NH2 (Compd. 36) (peptide)
peptide: {C20 diacid}-[γGlu]RCGTATCATERLAHFLERSSF[Sar]A[NMeI]LSSTEVGSSTP-NH2
modifications: disulfide 3-8
SMILES: CC[C@H](C)[C@@H](C(=O)N[C@@H](CC(C)C)C(=O)N[C@@H](CO)C(=O)N[C@@H](CO)C(=O)N[C@H](C(=O)N[C@@H](CCC(=O)O)C(=O)N[C@H](C(=O)NCC(=O)N[C@@H](CO)C(=O)N[C@@H](CO)C(=O)N[C@H](C(=O)N1CCC[C@H]1C(N)=O)[C@@H](C)O)C(C)C)[C@@H](C)O)N(C)C(=O)[C@H](C)NC(=O)CN(C)C(=O)[C@H](Cc1ccccc1)NC(=O)[C@H](CO)NC(=O)[C@H](CO)NC(=O)[C@H](CCCNC(=N)N)NC(=O)[C@H](CCC(=O)O)NC(=O)[C@H](CC(C)C)NC(=O)[C@H](Cc1ccccc1)NC(=O)[C@H](Cc1c[nH]cn1)NC(=O)[C@H](C)NC(=O)[C@H](CC(C)C)NC(=O)[C@H](CCCNC(=N)N)NC(=O)[C@H](CCC(=O)O)NC(=O)[C@@H](NC(=O)[C@H](C)NC(=O)[C@@H]1CSSC[C@H](NC(=O)[C@H](CCCNC(=N)N)NC(=O)CC[C@H](NC(=O)CCCCCCCCCCCCCCCCCCC(=O)O)C(=O)O)C(=O)NCC(=O)N[C@@H]([C@@H](C)O)C(=O)N[C@@H](C)C(=O)N[C@@H]([C@@H](C)O)C(=O)N1)[C@@H](C)O
B1: the “hAMYR3 EC50 (nM); cAMP induction” value came to 0.36 nM.

B2: [19CD]-isoGlu-R-C( )-GTAT-C( )-ATERLAHFLNRSSF-Gly(Me)-A-Ile(Me)-LSSTEVGSFT-Hyp-NH2 (Compd. 33) (peptide)
peptide: {C20 diacid}-[γGlu]RCGTATCATERLAHFLNRSSF[Sar]A[NMeI]LSSTEVGSFT[Hyp]-NH2
modifications: disulfide 3-8
SMILES: CC[C@H](C)[C@@H](C(=O)N[C@@H](CC(C)C)C(=O)N[C@@H](CO)C(=O)N[C@@H](CO)C(=O)N[C@H](C(=O)N[C@@H](CCC(=O)O)C(=O)N[C@H](C(=O)NCC(=O)N[C@@H](CO)C(=O)N[C@@H](Cc1ccccc1)C(=O)N[C@H](C(=O)N1C[C@H](O)C[C@H]1C(N)=O)[C@@H](C)O)C(C)C)[C@@H](C)O)N(C)C(=O)[C@H](C)NC(=O)CN(C)C(=O)[C@H](Cc1ccccc1)NC(=O)[C@H](CO)NC(=O)[C@H](CO)NC(=O)[C@H](CCCNC(=N)N)NC(=O)[C@H](CC(N)=O)NC(=O)[C@H](CC(C)C)NC(=O)[C@H](Cc1ccccc1)NC(=O)[C@H](Cc1c[nH]cn1)NC(=O)[C@H](C)NC(=O)[C@H](CC(C)C)NC(=O)[C@H](CCCNC(=N)N)NC(=O)[C@H](CCC(=O)O)NC(=O)[C@@H](NC(=O)[C@H](C)NC(=O)[C@@H]1CSSC[C@H](NC(=O)[C@H](CCCNC(=N)N)NC(=O)CC[C@H](NC(=O)CCCCCCCCCCCCCCCCCCC(=O)O)C(=O)O)C(=O)NCC(=O)N[C@@H]([C@@H](C)O)C(=O)N[C@@H](C)C(=O)N[C@@H]([C@@H](C)O)C(=O)N1)[C@@H](C)O
Regarding B2, the “hAMYR3 EC50 (nM); cAMP induction” value worked out at 0.15 nM.

B3: [19CD]-isoGlu-R-C( )-GTAT-C( )-ATERLAHFLVRSSF-Gly(Me)-A-Ile(Me)-LSSTEVGSSTP-NH2 (Compd. 38) (peptide)
peptide: {C20 diacid-γGlu}-RCGTATCATERLAHFLVRSSF[Sar]A[NMeI]LSSTEVGSSTP-NH2
modifications: disulfide 2-7
SMILES: CC[C@H](C)[C@@H](C(=O)N[C@@H](CC(C)C)C(=O)N[C@@H](CO)C(=O)N[C@@H](CO)C(=O)N[C@H](C(=O)N[C@@H](CCC(=O)O)C(=O)N[C@H](C(=O)NCC(=O)N[C@@H](CO)C(=O)N[C@@H](CO)C(=O)N[C@H](C(=O)N1CCC[C@H]1C(N)=O)[C@@H](C)O)C(C)C)[C@@H](C)O)N(C)C(=O)[C@H](C)NC(=O)CN(C)C(=O)[C@H](Cc1ccccc1)NC(=O)[C@H](CO)NC(=O)[C@H](CO)NC(=O)[C@H](CCCNC(=N)N)NC(=O)[C@@H](NC(=O)[C@H](CC(C)C)NC(=O)[C@H](Cc1ccccc1)NC(=O)[C@H](Cc1c[nH]cn1)NC(=O)[C@H](C)NC(=O)[C@H](CC(C)C)NC(=O)[C@H](CCCNC(=N)N)NC(=O)[C@H](CCC(=O)O)NC(=O)[C@@H](NC(=O)[C@H](C)NC(=O)[C@@H]1CSSC[C@H](NC(=O)[C@H](CCCNC(=N)N)NC(=O)CC[C@H](NC(=O)CCCCCCCCCCCCCCCCCCC(=O)O)C(=O)O)C(=O)NCC(=O)N[C@@H]([C@@H](C)O)C(=O)N[C@@H](C)C(=O)N[C@@H]([C@@H](C)O)C(=O)N1)[C@@H](C)O)C(C)C
Turning to B3, the “hAMYR3 EC50 (nM); cAMP induction” value is 0.12 nM.

B4: [19CD]-isoGlu-R-C( )-GTAT-C( )-ATERLAHFLNRSSF-Gly(Me)-A-Ile(Me)-LSSTEVGSSTP-NH2 (Compd. 35) (peptide)
peptide: {C20 diacid}-[γGlu]RCGTATCATERLAHFLNRSSF[Sar]A[NMeI]LSSTEVGSSTP-NH2
modifications: disulfide 3-8
SMILES: CC[C@H](C)[C@@H](C(=O)N[C@@H](CC(C)C)C(=O)N[C@@H](CO)C(=O)N[C@@H](CO)C(=O)N[C@H](C(=O)N[C@@H](CCC(=O)O)C(=O)N[C@H](C(=O)NCC(=O)N[C@@H](CO)C(=O)N[C@@H](CO)C(=O)N[C@H](C(=O)N1CCC[C@H]1C(N)=O)[C@@H](C)O)C(C)C)[C@@H](C)O)N(C)C(=O)[C@H](C)NC(=O)CN(C)C(=O)[C@H](Cc1ccccc1)NC(=O)[C@H](CO)NC(=O)[C@H](CO)NC(=O)[C@H](CCCNC(=N)N)NC(=O)[C@H](CC(N)=O)NC(=O)[C@H](CC(C)C)NC(=O)[C@H](Cc1ccccc1)NC(=O)[C@H](Cc1c[nH]cn1)NC(=O)[C@H](C)NC(=O)[C@H](CC(C)C)NC(=O)[C@H](CCCNC(=N)N)NC(=O)[C@H](CCC(=O)O)NC(=O)[C@@H](NC(=O)[C@H](C)NC(=O)[C@@H]1CSSC[C@H](NC(=O)[C@H](CCCNC(=N)N)NC(=O)CC[C@H](NC(=O)CCCCCCCCCCCCCCCCCCC(=O)O)C(=O)O)C(=O)NCC(=O)N[C@@H]([C@@H](C)O)C(=O)N[C@@H](C)C(=O)N[C@@H]([C@@H](C)O)C(=O)N1)[C@@H](C)O
Regarding B4, the “hAMYR3 EC50 (nM); cAMP induction” value was 0.11 nM.

B5: [19CD]-isoGlu-R-C( )-GTAT-C( )-ATERLAHFLQRSSF-Gly(Me)-A-Ile(Me)-LSSTEVGSSTP-NH2 (Compd. 34) (peptide)
peptide: {C20 diacid}-[γGlu]RCGTATCATERLAHFLQRSSF[Sar]A[NMeI]LSSTEVGSSTP-NH2
modifications: disulfide 3-8
SMILES: CC[C@H](C)[C@@H](C(=O)N[C@@H](CC(C)C)C(=O)N[C@@H](CO)C(=O)N[C@@H](CO)C(=O)N[C@H](C(=O)N[C@@H](CCC(=O)O)C(=O)N[C@H](C(=O)NCC(=O)N[C@@H](CO)C(=O)N[C@@H](CO)C(=O)N[C@H](C(=O)N1CCC[C@H]1C(N)=O)[C@@H](C)O)C(C)C)[C@@H](C)O)N(C)C(=O)[C@H](C)NC(=O)CN(C)C(=O)[C@H](Cc1ccccc1)NC(=O)[C@H](CO)NC(=O)[C@H](CO)NC(=O)[C@H](CCCNC(=N)N)NC(=O)[C@H](CCC(N)=O)NC(=O)[C@H](CC(C)C)NC(=O)[C@H](Cc1ccccc1)NC(=O)[C@H](Cc1c[nH]cn1)NC(=O)[C@H](C)NC(=O)[C@H](CC(C)C)NC(=O)[C@H](CCCNC(=N)N)NC(=O)[C@H](CCC(=O)O)NC(=O)[C@@H](NC(=O)[C@H](C)NC(=O)[C@@H]1CSSC[C@H](NC(=O)[C@H](CCCNC(=N)N)NC(=O)CC[C@H](NC(=O)CCCCCCCCCCCCCCCCCCC(=O)O)C(=O)O)C(=O)NCC(=O)N[C@@H]([C@@H](C)O)C(=O)N[C@@H](C)C(=O)N[C@@H]([C@@H](C)O)C(=O)N1)[C@@H](C)O
B5: the “hAMYR3 EC50 (nM); cAMP induction” value is 0.12 nM.

B6: [19CD]-isoGlu-R-C( )-GTAT-C( )-ATERLAHFLQRSSF-Gly(Me)-A-Ile(Me)-LSSTEVGSFTP-NH2 (Compd. 39) (peptide)
peptide: {C20 diacid}-[γGlu]RCGTATCATERLAHFLQRSSF[Sar]A[NMeI]LSSTEVGSFTP-NH2
modifications: disulfide 3-8
SMILES: CC[C@H](C)[C@@H](C(=O)N[C@@H](CC(C)C)C(=O)N[C@@H](CO)C(=O)N[C@@H](CO)C(=O)N[C@H](C(=O)N[C@@H](CCC(=O)O)C(=O)N[C@H](C(=O)NCC(=O)N[C@@H](CO)C(=O)N[C@@H](Cc1ccccc1)C(=O)N[C@H](C(=O)N1CCC[C@H]1C(N)=O)[C@@H](C)O)C(C)C)[C@@H](C)O)N(C)C(=O)[C@H](C)NC(=O)CN(C)C(=O)[C@H](Cc1ccccc1)NC(=O)[C@H](CO)NC(=O)[C@H](CO)NC(=O)[C@H](CCCNC(=N)N)NC(=O)[C@H](CCC(N)=O)NC(=O)[C@H](CC(C)C)NC(=O)[C@H](Cc1ccccc1)NC(=O)[C@H](Cc1c[nH]cn1)NC(=O)[C@H](C)NC(=O)[C@H](CC(C)C)NC(=O)[C@H](CCCNC(=N)N)NC(=O)[C@H](CCC(=O)O)NC(=O)[C@@H](NC(=O)[C@H](C)NC(=O)[C@@H]1CSSC[C@H](NC(=O)[C@H](CCCNC(=N)N)NC(=O)CC[C@H](NC(=O)CCCCCCCCCCCCCCCCCCC(=O)O)C(=O)O)C(=O)NCC(=O)N[C@@H]([C@@H](C)O)C(=O)N[C@@H](C)C(=O)N[C@@H]([C@@H](C)O)C(=O)N1)[C@@H](C)O
For B6, the “hAMYR3 EC50 (nM); cAMP induction” value came to 0.22 nM.

B7: [19CD]-isoGlu-R-C( )-GTAT-C( )-ATERLAHFLHRSSF-Gly(Me)-A-Ile(Me)-LSSTEVGSSTP-NH2 (Compd. 37) (peptide)
peptide: {C20 diacid}-[γGlu]RCGTATCATERLAHFLHRSSF[Sar]A[NMeI]LSSTEVGSSTP-NH2
modifications: disulfide 3-8
SMILES: CC[C@H](C)[C@@H](C(=O)N[C@@H](CC(C)C)C(=O)N[C@@H](CO)C(=O)N[C@@H](CO)C(=O)N[C@H](C(=O)N[C@@H](CCC(=O)O)C(=O)N[C@H](C(=O)NCC(=O)N[C@@H](CO)C(=O)N[C@@H](CO)C(=O)N[C@H](C(=O)N1CCC[C@H]1C(N)=O)[C@@H](C)O)C(C)C)[C@@H](C)O)N(C)C(=O)[C@H](C)NC(=O)CN(C)C(=O)[C@H](Cc1ccccc1)NC(=O)[C@H](CO)NC(=O)[C@H](CO)NC(=O)[C@H](CCCNC(=N)N)NC(=O)[C@H](Cc1c[nH]cn1)NC(=O)[C@H](CC(C)C)NC(=O)[C@H](Cc1ccccc1)NC(=O)[C@H](Cc1c[nH]cn1)NC(=O)[C@H](C)NC(=O)[C@H](CC(C)C)NC(=O)[C@H](CCCNC(=N)N)NC(=O)[C@H](CCC(=O)O)NC(=O)[C@@H](NC(=O)[C@H](C)NC(=O)[C@@H]1CSSC[C@H](NC(=O)[C@H](CCCNC(=N)N)NC(=O)CC[C@H](NC(=O)CCCCCCCCCCCCCCCCCCC(=O)O)C(=O)O)C(=O)NCC(=O)N[C@@H]([C@@H](C)O)C(=O)N[C@@H](C)C(=O)N[C@@H]([C@@H](C)O)C(=O)N1)[C@@H](C)O
Turning to B7, the “hAMYR3 EC50 (nM); cAMP induction” value is 0.07 nM.
